Results from patent publication US9303249B2, “High concentration α-glucosidase compositions for the treatment of Pompe disease” (Amicus Therapeutics, Inc., priority 2012, dated 2016).

Test system: GAA KO mice
Experiment: Tissue GAA activity after repeat SQ with varying 1-DNJ (Example 16)
Assay type: in vivo, mouse
Conditions: Lumizyme 20 mg/kg SQ alone, 4 doses, 3 days after last dose
Method: 14-week old male GAA KO mice in groups of 7 were used in the present study. Each group of mice was administered one of the following treatments:
(2) Lumizyme® alone (20 mg/kg) delivered subcutaneously (SQ);
(3) Co-formulated Lumizyme® (20 mg/kg) and 1-DNJ (3 mg/kg) SQ.
(4) Co-formulated Lumizyme® (20 mg/kg) and 1-DNJ (10 mg/kg) SQ.
(5) Co-formulated Lumizyme® (20 mg/kg) and 1-DNJ (30 mg/kg) SQ.
Each of the treatments was administered to their respective treatment group for a period of 2 weeks. The treatments were administered on Monday and Thursday of each week. SQ injections were administered between the shoulder blades of each mouse receiving treatment. A total of 4 doses were administered to each study animal.
Tissue samples were collected to determine rhGAA uptake 3 days following the last dose of the study (i.e., 3 days post dose 4). Tissue samples included heart, tongue, diaphragm, triceps, quads, gastrocnemius, ventral skin and dorsal skin from the SQ injection site. Tissue samples were also collected to determine glycogen concentration 14 days following the last dose of the study (i.e., 14 days post dose 4).
FIGS. 47-54 show tissue GAA activity 3 days following the final administration, and glycogen levels 14 days following the final administration. GAA activities in tissues were determined using a 4-MUG fluorogenic substrate assay. Glycogen levels were determined using a glycogen assay (see Example 9 for method). Lumizyme® alone administered subcutaneously led to uptake of enzyme in all investigated tissues following repeat administrations.

Substance: Lumizyme®: alglucosidase alfa, recombinant human acid α-glucosidase from Genzyme Corporation
- GAA Activity (Biceps): 45.9 nmol/mg/h
- GAA Activity (Diaphragm): 10.6 nmol/mg/h
- GAA Activity (Gastrocnemius): 1 nmol/mg/h
- GAA Activity (Heart): 1.9 nmol/mg/h
- GAA Activity (Quadriceps): 1.3 nmol/mg/h
- GAA Activity (Skin): 43.9 nmol/mg/h
- GAA Activity (Soleus): 0.9 nmol/mg/h
- GAA Activity (Tongue): 2.3 nmol/mg/h
- GAA Activity (Triceps): 151.3 nmol/mg/h
